Experiments:
[1] = biological target: T1, human CD16 receptor (FcgammaRIIIa) (human, UniProt P08637 17-254); assay: cell-based or functional assay
[2] = biological target: T1, human CD16 receptor (FcgammaRIIIa); assay: cell-based or functional assay; remark: listed apart in the source
[3] = biological target: T2, human LDL (Low Density Lipoprotein) receptor (human, UniProt P01130 22-860); assay: binding to melanoma cell lines; method not described
T2 construct: whole, on cells; no recombinant LDL-R was tested; also called LDL-R; human LDL-R

[4] = biological target: T1, human CD16 receptor (FcgammaRIIIa); assay: flow cytometry on NK cells; competition with 3G8-PE; antibody at 50 µg/ml; reference Rituxan®
Description: The binding to the CD16 receptor is evaluated by a murine anti-CD16 antibody (3G8) competition test.
The effector cells (NK cells) are purified by the negative depletion kit (NK Cell Isolation Kit, Myltenyi, Paris, France), starting with peripheral blood from healthy donors. Then, the NK cells are incubated with variable concentrations (0, 10 and 50 μg/ml) of antibodies to be evaluated and the anti-CD16 antibody (3G8) coupled to a fluorochrome (3G8-PE) at a fixed concentration.
After washing, the binding of the 3G8-PE to the CD16 receptor of the NK cells is evaluated by flow cytometry.

T1 sequence (P08637 17-254): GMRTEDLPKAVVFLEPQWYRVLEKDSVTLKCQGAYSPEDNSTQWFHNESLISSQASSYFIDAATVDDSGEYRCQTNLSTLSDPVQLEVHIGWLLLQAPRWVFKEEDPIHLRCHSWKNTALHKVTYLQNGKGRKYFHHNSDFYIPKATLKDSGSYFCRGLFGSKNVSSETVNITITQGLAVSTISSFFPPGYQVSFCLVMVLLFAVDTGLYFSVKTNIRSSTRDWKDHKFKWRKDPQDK
T2 sequence (P01130 22-860): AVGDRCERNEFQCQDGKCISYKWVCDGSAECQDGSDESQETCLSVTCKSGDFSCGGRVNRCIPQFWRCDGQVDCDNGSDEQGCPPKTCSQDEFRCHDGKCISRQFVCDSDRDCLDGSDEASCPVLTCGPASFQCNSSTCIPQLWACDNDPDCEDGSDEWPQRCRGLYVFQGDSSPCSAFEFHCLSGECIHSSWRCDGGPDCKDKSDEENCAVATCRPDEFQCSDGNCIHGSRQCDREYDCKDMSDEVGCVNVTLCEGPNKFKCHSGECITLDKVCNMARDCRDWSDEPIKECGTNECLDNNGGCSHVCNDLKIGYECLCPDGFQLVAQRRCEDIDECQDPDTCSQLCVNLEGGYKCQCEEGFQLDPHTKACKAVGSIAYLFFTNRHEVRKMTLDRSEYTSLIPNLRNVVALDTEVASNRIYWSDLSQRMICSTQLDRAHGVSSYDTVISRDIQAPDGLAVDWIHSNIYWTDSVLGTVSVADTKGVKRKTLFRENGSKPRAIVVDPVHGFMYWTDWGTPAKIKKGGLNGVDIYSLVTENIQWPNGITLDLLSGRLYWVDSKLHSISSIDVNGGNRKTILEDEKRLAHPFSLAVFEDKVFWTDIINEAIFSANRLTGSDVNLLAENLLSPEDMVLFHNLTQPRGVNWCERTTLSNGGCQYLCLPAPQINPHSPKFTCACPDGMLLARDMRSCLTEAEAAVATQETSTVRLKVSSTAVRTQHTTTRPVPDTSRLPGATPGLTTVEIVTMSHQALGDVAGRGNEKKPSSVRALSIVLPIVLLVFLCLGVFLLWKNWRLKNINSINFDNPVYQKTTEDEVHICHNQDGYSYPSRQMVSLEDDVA

B1: anti-LDL-R chimeric antibody EMAB604 (antibody, human IgG1, kappa)
heavy: not shown
light: DVLMTQTPLSLPVSLGDQASISCRSSQSILHSSGIAYLEWYLQKPGQSPKLLIYKVSNRFSGVPDRFSGSGSGTDFTLKISRVEAEDLGVYYCFQGSHVPWTFGGGTKLEIKRTVAAPSVFIFPPSDEQLKSGTASVVCLLNNFYPREAKVQWKVDNALQSGNSQESVTEQDSKDSTYSLSSTLTLSKADYEKHKVYACEVTHQGLSSPVTKSFNRGEC
notes: The cloned V fragments contain the natural signal peptide of C7; also called anti-LDL-R (EMAB604); chimeric antibody C7
Q: B1 was tested. Which “ADCC EC50, GUY 17.2 target cells, NK effector cells” value [1] did it give?
A: 0.45 µg/mL

Q: And the “ADCC EC50, HT-144 target cells, NK effector cells” value [2]?
A: 0.45 µg/mL

Q: Does B1 bind [3]?
A: binds

Q: What about the “fold binding against Rituxan®” value [4] of the same binder?
A: ~3 fold

Reference: patent US20100098706A1 (LFB BIOTECHNOLOGIES, published 2010)
